Here are results for 47 substances from patent publication US7851592B2, “Compositions and methods for inhibiting G2 cell cycle arrest and sensitizing cells to DNA damaging agents” (CanBas Co. Ltd., priority 1999, dated 2010).

Chain of human Chk2 kinase (O96017 whole entry): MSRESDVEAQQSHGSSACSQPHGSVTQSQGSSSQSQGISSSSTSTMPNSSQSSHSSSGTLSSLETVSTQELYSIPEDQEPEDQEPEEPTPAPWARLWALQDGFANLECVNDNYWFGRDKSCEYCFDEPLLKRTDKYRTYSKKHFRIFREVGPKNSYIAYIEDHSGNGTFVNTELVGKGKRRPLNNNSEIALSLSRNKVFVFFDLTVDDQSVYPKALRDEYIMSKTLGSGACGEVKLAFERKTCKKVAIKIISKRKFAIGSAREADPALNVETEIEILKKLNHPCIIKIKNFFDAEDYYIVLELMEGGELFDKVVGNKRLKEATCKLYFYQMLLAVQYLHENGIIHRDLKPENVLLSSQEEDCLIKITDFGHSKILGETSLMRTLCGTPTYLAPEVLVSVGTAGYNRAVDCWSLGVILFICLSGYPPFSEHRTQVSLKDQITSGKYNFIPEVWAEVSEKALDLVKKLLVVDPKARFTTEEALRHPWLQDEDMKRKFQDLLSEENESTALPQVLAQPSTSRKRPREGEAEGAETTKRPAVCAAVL

One experiment deals with human Chk2 kinase (Homo sapiens, UniProt O96017). Put plainly: In vitro phosphorylation (kination) of membrane-immobilized peptides by human Chk2 kinase (Gst-Chk2). It is filed as biochemical. Also noted: key to phosphorylation signal by human Chk2 kinase (graded) / in vitro phosphorylation by human Chk2 kinase (graded signal): a “+++” indicates the peptide was relatively highly phosphorylated; a “++” indicates the peptide was relatively less phosphorylated; a “+” indicates the peptide was detectably significantly phosphorylated over negative control; no indication indicates that a peptide was not significantly phosphorylated over negative control. The settings on record: peptide on membrane; Gst-Chk2. The method, then:
Exemplary peptides were directly synthesized (immobilized) on a membrane and contacted with human Chk2 kinase. Specifically, oligo-peptides with all sequences predicted by the 3-dimensional model were directly synthesized on a membrane by using an auto-spot-peptide-synthesizer, Model ASP-22 2 (ABiMED, Germany). The amount of peptide was about 0.1 micro-mol/cm^2.
The membrane was incubated with 2% Gly-Gly in PBS for 2 hours (hr) at room temperature (RT). Then, they were washed three times with 0.1% Tween-P BS™. The “kination,” or “phosphorylation,” reaction was performed with a recombinant fusion protein Gst-Chk2 at a concentration of about 5 μg in 4 ml reaction buffer, 1 mM MgCl2, 2% Gly-Gly and γ-^33P-ATP in PBS at RT for 1 hr. After the reaction, the membrane was washed 5 times with RIPA (1% SDS, 1% NP-40, 100 mM NaCl) and analyzed with a Bass 2500™ image analyzer (Fuji, Japan).
The following Table 1 is a complete list of tested peptides and results of the in vitro phosphorylation by human Chk2 kinase assay.
The following example describes studies which identified exemplary G2 checkpoint-abrogating peptides of the invention. The following peptides of the invention were synthesized directly on membranes and tested in in vitro phosphorylation (“kination” assays, as described above.
These peptides were tested in in vitro kination reactions. The oligopeptides were used as phosphorylation substrates; added kinases are involved in the cell cycle G2 checkpoint. Thus, a substance that inhibits the kination reaction can be a cell cycle 62 checkpoint abrogator. For the detection of the phosphorylation status of substrates in this screening method, isotope-labeled ATP and anti-phospho-peptides antibody can be used.
As for L Y R S P S Y Y E N L (LYRSPSYYENL), the “phosphorylation by human Chk2 kinase (in words)” value is reported as “best phosphorylation substrates”.

Staying with this experiment, now noted: peptide synthesized on membrane (about 0.1 micro-mol/cm^2); Gst-Chk2 about 5 μg in 4 ml reaction buffer, γ-33P-ATP, RT 1 hr; image analyzer signal graded −, +, ++, +++.
Regarding LYRSPSYWENL, the “in vitro phosphorylation by human Chk2 kinase (graded signal)” value (“in vitro phosphorylation” below) is on record as “+”. On the same count and under the same terms, the result for LYRSPSNWENL reads “+”. The same measure, in the same setting: then LYHSPSYWENL, with “+”; and LYTSPSNFENL, with “+”. Still for that read-out and setting: then LYRSPSYYENL, with “+”. For the substance LYRSPSMPENL, the “in vitro phosphorylation” value is “+”. The same measure, in the same setting: then LYTSPSYFENL, with “++”; and LYSSPSYWENL, with “+”; and LYSSPSMYENL, with “+”. Same read-out and setting: the result for LFTSPSYPENL reads “+”; that for LYSSPSFWENL, “+”. The same measure, in the same setting: the result for LYHSPSYFENL reads “+”. As to LFTSPSYWENL, the “in vitro phosphorylation” value is given as “+”.

On to LYSSPSQPENL, for which the “in vitro phosphorylation” value is “+”. The same measure, in the same setting: the result for LYSSPSFYENL reads “+”; that for LYSSPSQWENL, “+”; that for LFTSPSYFENL, “+”. Take LYRSPSNPENL: the “in vitro phosphorylation” value was “+”. On the same count and under the same terms, the result for LYRSPSNYENL reads “+”; that for LFTSPSYYENL, “+++”; that for LYRSPSHFENL, “+”. In the case of LYSSPSHFENL, the “in vitro phosphorylation” value is “++”. On the same count and under the same terms, then LYTSPSHPENL, with “+”.

With LYSSPSHYENL, the “in vitro phosphorylation” value is recorded as “++”. Same read-out and setting: the result for LYTSPSMYENL reads “++”; that for LYTSPSFWENL, “++”; that for LYSSPSMPENL, “+”. Still for that read-out and setting: then LYTSPSYYENL, with “+++”. Same read-out and setting: the result for LYHSPSYPENL reads “+”.

For LYHSPSYYENL, the “in vitro phosphorylation” value is “+++”. The same measure, in the same setting: then LYSSPSFFENL, with “+”; and LYSSPSMWENL, with “+”. LYTSPSMFENL: the “in vitro phosphorylation” value is on record as “++”. On to LYSSPSMFENL, for which the “in vitro phosphorylation” value is reported as “+”.

Regarding LYTSPSNPENL, the “in vitro phosphorylation” value is reported as “+”. The same measure, in the same setting: then LYSSPSYPENL, with “+”; and LYTSPSMPENL, with “++”; and LYTSPSYWENL, with “++”.

On to LYRSPSHPENL, for which the “in vitro phosphorylation” value is listed as “+”.

The same experiment, now with this note: peptide synthesized on membrane, about 0.1 micro-mol/cm^2; Gst-Chk2 about 5 μg in 4 ml, γ-33P-ATP, RT 1 hr; image analyzer signal graded −, +, ++, +++.
With 1129 (WYRSPSFYENL) [compound 1129], the “in vitro phosphorylation” value was “+++”.

As for 1132 (WYRSPSYPENL) [compound 1132], the “in vitro phosphorylation” value is given as “++”. Same read-out and setting: the result for 1212 (WYTSPSYPENL) [compound 1212] reads “++”. Still for that read-out and setting: the result for 1124 (WYRSPSMYENL) [compound 1124] reads “++”; that for 1127 (WYRSPSFPENL) [compound 1127], “++”; that for 1134 (WYRSPSYYENL) [compound 1134], “++”. On the same count and under the same terms, then 1130 (WYRSPSFWENL) [compound 1130], with “++”.
